# According to the supplement of paper PMC10567573:
# ± gives the standard deviation.
# Experiment: protein stability index of a GFP-peptide fusion (GPS, HEK-293T) (PSI 1-6); higher = more stable
# [1] = treatment: DMSO, c terminus: a fixed tail appended
# [2] = treatment: MLN4924 1 uM, 8 h, c terminus: a fixed tail appended
# [3] = treatment: DMSO, c terminus: native
# [4] = treatment: MLN4924 1 uM, 8 h, c terminus: native
# 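Also: 24-mer peptide tiles fused after GFP, lentivirally expressed, FACS-sorted into six equal bins by GFP/DsRed ratio, decoded by Illumina sequencing, PSI is the read-weighted mean bin number.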
Sequence,protein stability index [1],protein stability index [2],protein stability index [3],protein stability index [4]
TREGFTLLHLAVNSNTPVDDFHTN [FEM1B],2.85 ± 0.17,2.95 ± 0.19,,
KASWSSLSMDEKVELYRIKFKESF [COX4I1],2.55 ± 0.56,2.85 ± 0.44,,
DKQKLKRTEIISRSWFPSAPGSAS [YJU2B],3.56 ± 0.21,3.71 ± 0.12,,
VLALFVYVAWNEGSRQWREGKQD [VMA21],,,2.51 ± 0.49,2.85 ± 1.1
NPNSSSGKGSGGNAGSYIPSYTSW [DLX1],3.44 ± 0.14,3.43 ± 0.4,,
IVALYIASGLTGFIGLEVVAQLFN [ATL3],3.24 ± 0.094,3.31 ± 0.33,,
PEAAVLFRQMATALAHCHQHGLVL [TRIB3],2.92 ± 0.55,2.88 ± 0.48,,
AEETANLPPSPPPSPASEQTVTVE [MAP2],5.05 ± 0.18,5.18 ± 0.17,,
GKYDSGIPPYSRASLKGYQWLKDK [KCNAB2],3.26 ± 0.073,3.23 ± 0.24,,
VLSSTPDHSFSLELGSEVDITEGD [ATF4],5.32 ± 0.43,5.44 ± 0.11,,
EEVSEVESFILDQDDLENPMLETA [ANKRD17],5.69 ± 0.23,5.16 ± 0.57,,
YAPVGFCLLVLRLFLGIHVFLVSC [AUP1],3.14 ± 1,2.88 ± 0.35,,
AFDYNSLSPTQRQKNFELAFTMAE [SMTNL2],2.76 ± 0.3,3.09 ± 0.29,,
LEWNSLGTWDDAFATFCGGLAANG [LRRC45],2.52 ± 0.3,2.58 ± 0.31,,
ATTYKHGVLTRKTHADMDGKRTPR [PSD2],4.44 ± 0.16,4.63 ± 0.26,,
MEIFMEEMREIRRKLRELQLRNCL [BEX3],3.28 ± 0.41,2.52 ± 0.97,,
GYKSNQVRGLYDFYLPREELWIYN [KLHDC2],2.44 ± 0.16,1.98 ± 0.17,,
TELVLSDCMLSEEGATLLLRGLCA [LRRC45],2.32 ± 0.3,2.32 ± 0.24,,
QEDAPMIEPLVPEEKMETKTESSG [EPB41L3],5.69 ± 0.17,5.63 ± 0.13,,
RWTFEKACHPFLLGPPLVRKRIHD [TOR1AIP2],2.64 ± 0.18,2.76 ± 0.33,,
IVISYIHVAAAVLRIRSVEGRKKA [OR3A1],2.37 ± 0.6,2.05 ± 0.21,,
SLNLSTEFISSTKRPYAKELETVD [SERPINB5],3.69 ± 0.14,3.82 ± 0.21,,
MPNGCSDDVLPWRRTAENKLDTKY [DCTD],4 ± 0.1,3.87 ± 0.29,,

Sequence,protein stability index [1],protein stability index [2],protein stability index [3],protein stability index [4]
AGADLEHESEGGRTPLMKAARAGH [ANKRD17],5.07 ± 0.29,4.95 ± 0.26,,
DMLIREVVEKRLCMYEHGEDTHQS [RSPH3],3.7 ± 0.26,3.85 ± 0.28,,
AQTFIALCATDFKFAMYPPSMIAT [CCND2],2.75 ± 0.71,3.04 ± 0.62,,
LDAVQVLSGVSQLLPKSRENYLNR [FCHO1],3.13 ± 0.22,3.25 ± 0.18,,
KTIKSFFPHSGKDCLLCFPETLPE [C8orf76],2.92 ± 0.26,3.03 ± 0.32,,
KAGLENSLAETECRYATQLQQIQG [KRT15],3.92 ± 0.049,4 ± 0.3,,
AGTKVFEVPEMSPVTCCDVSSNNR [TLE6],4.13 ± 0.26,4.17 ± 0.33,,
GNGRPGRPSQYRPDGLRSGDGVPP [LCOR],4.59 ± 0.31,4.79 ± 0.2,,
EHKSLTGTARYMSINTHLGKEQSR [CSNK1G3],4.02 ± 0.095,3.82 ± 0.38,,
NLPCNKFKNRLVNIMPYESTRVCL [PTPRD],2.15 ± 0.23,2.65 ± 0.96,,
GTPMALIVISYIHVAAAVLRIRSV [OR3A1],3.16 ± 0.48,3.24 ± 0.074,,
HITARIESDLTLESLSDEEIHPG [DRICH1],,,4.47 ± 0.23,4.38 ± 0.37
WMPPPSRADSFKVSYQLADGGEPQ [TNXB],4.03 ± 0.44,4.23 ± 0.64,,
ALVKEREKQLAKKEQSKELQMKLE [FAM50A],4.87 ± 0.076,4.64 ± 0.37,,
ISPSTLKNSLFPSPISSISPGLHS [KCNK9],2.71 ± 0.56,2.76 ± 0.56,,
NGRGELVESLKRFCASTRLPPTPL [AUP1],3.18 ± 0.38,2.94 ± 0.5,,
AIKEMIENCLDAKSTSIQVIVKEG [MLH1],2.79 ± 0.19,2.74 ± 0.22,,
SKLVESGIQFMDEPEMAVFLQNAK [TRIM55],3.71 ± 0.34,4.01 ± 0.21,,
NRRGGPPFAFVEFEDPRDAEDAVY [SRSF1],3.91 ± 0.21,4.21 ± 0.26,,
VSSSVIEQLFFVRLVGKTPIETLI [NR2F2],2.74 ± 0.58,3.05 ± 0.37,,
LKTSNLPEELRKVFITYSMDTAME [TRAF3IP2],2.41 ± 0.28,2.43 ± 0.56,,
ASDYSKKSNVLKLKTADWRVFLFQ [PSD2],2.12 ± 0.42,2.23 ± 0.19,,
PGPPAAPRARRRLGSGPDRELRKP [PWWP2B],5.03 ± 0.56,5.12 ± 0.35,,

Sequence,protein stability index [1],protein stability index [2],protein stability index [3],protein stability index [4]
GIESMDQCRHTLEQHNWNIEAAVQ [FAF2],3.78 ± 0.2,4.08 ± 0.19,,
RLREAAALGDIREVQKLVESGVDV [ANKRD40],4.28 ± 0.23,4.19 ± 0.077,,
ENGSVSSSETPPPPPPPNEINPPP [EIF5],5.32 ± 0.18,5.35 ± 0.17,,
THTQIDQQPPRLLIVHIALPSWAD [M1AP],2.75 ± 0.59,2.68 ± 0.54,,
SEGELGGPSEPGGTHPEDHQGHSD [RHOBTB2],5.54 ± 0.32,5.49 ± 0.29,,
KATASEAVDCKWYIRAPPRSKIYL [NETO1],2.23 ± 0.54,2.25 ± 0.32,,
LDAEDRPAWNSKLQYILAQIGFSV [SLC6A17],2.19 ± 0.53,2.32 ± 0.21,,
PATGRSGPLPPPPPGAGGPPMPPP [WAS],4.74 ± 0.28,4.88 ± 0.22,,
TRNGEVVTESQKEQRSELDKSSAH [PRPH],5.06 ± 0.27,5.31 ± 0.4,,
QFEANGYFFKRPYPFVLFYSKFHG [KMT2E],,2.91 ± 1.9,,
ETVVSYLPLSHIAAQMMDIWVPIK [ACSBG2],2.14 ± 0.36,2.04 ± 0.14,,
ELVPHPETAPTTVDRTHALMKKIG [CRYL1],4.31 ± 0.23,4.48 ± 0.35,,
VIKMLVNDNKVLRYLAVLESPIPE [EFHC1],2.32 ± 0.31,,,
DSSLHWSSSYSPETFRQQFRQFGY [ZNF396],2.66 ± 0.31,2.56 ± 0.15,,
RAFLQTYSHEVSLTADSRKSHLIF [PCDHGA10],2.2 ± 0.34,2.08 ± 0.24,,
AHQHRDKMQQSKNQVVSSTNGELN [CSNK1G3],5.02 ± 0.42,5.1 ± 0.25,,
MMDLRNTPAKSLDKFIEDYLLPDT [OAS1],3.04 ± 0.16,3.15 ± 0.28,,
ELCRDAAQFRLLSEVEELNMSLTA [TEKT4],2.85 ± 0.34,2.77 ± 0.28,,
MSTEEQYRIRQVNIYYYLEDDSMS [EFHC1],2.19 ± 0.26,2.13 ± 0.3,,
INCQLSDPSSTKPGTLLKTSPSPE [TRIM14],4.79 ± 0.3,4.88 ± 0.31,,
GFFEEKGAIFCPPCYDVRYAPSCA [PDLIM7],2.26 ± 0.22,2.58 ± 0.3,,
APPSPRDISMEIDSPENMMRHIRF [CCDC6],3.51 ± 0.28,3.65 ± 0.26,,
QALGEHLKLRQQVIATATVYFKRF [CCNC],2.54 ± 0.55,2.48 ± 0.42,,

Sequence,protein stability index [1],protein stability index [2],protein stability index [3],protein stability index [4]
FYFENALSKSNKPIHTIILNPHVH [CAMK2D],2.01 ± 0.58,2.42 ± 0.044,,
GLSESSGPHTISNQNNYRLLSCGK [ACSBG2],4.55 ± 0.41,4 ± 0.28,,
YFTKSGFHPDPRQKALYRRLATVH [CLPTM1],2.12 ± 0.41,2.35 ± 0.22,,
YNNQSLGHGSHSFIYYENMLLGVP [PKD2L1],2.16 ± 0.21,2.23 ± 0.37,,
EHVSRALCIHTGRELRCKVFPIKH [TRIB1],2.21 ± 0.13,2.61 ± 0.3,,
NQSVEPKKEEPEPETEAVSSSQEI [ZMYND11],5.25 ± 1,5.29 ± 0.52,,
LPNHRAAKRLWKVCVEHHTFFRLL [EPB41L3],2.42 ± 0.34,2.36 ± 0.13,,
VVAILAAACLLQLDGLIQQCGETM [GMCL1],3.23 ± 0.42,2.92 ± 0.39,,
GRGDEASEEGQNGSSPKSKTKWTK [ADD1],5.22 ± 0.16,5.36 ± 0.36,,
TFQSHEPEFDYLKSLEIEEKINKI [PPP2R2C],4.74 ± 0.17,4.81 ± 0.31,,
EGRFWKSKNEDRGEEEAESSISST [ZMYND11],5.65 ± 0.2,5.71 ± 0.13,,
EAIQPYRDRLRSRLEALSTERDEI [TRIM15],4.61 ± 0.12,4.52 ± 0.14,,
FAYKDEYEKFKLYLTIILILISFT [TMEM120A],2.83 ± 0.35,2.46 ± 0.52,,
SIFGICMVFSGLCPLLLGSVMAIE [PTGFR],3.36 ± 0.43,3.09 ± 0.84,,
ACIAYIRITQYLDAGGIPRTAQSE [CAMK2A],2.64 ± 0.42,2.81 ± 0.39,,
WGKRKNKPKMNYEKLSRGLRYYYD [ETS2],2.52 ± 0.26,2.51 ± 0.43,,
QKSVTRSCLLEEEEESGEEAAEAM [POP5],5.37 ± 0.42,5.47 ± 0.27,,
TPLHIAAQNNCPAIMNALIEAGAH [FEM1A],3.07 ± 0.2,3.13 ± 0.23,,
CRQRLIFEQTPALTKHEWTEALGC [ZNF8],2.38 ± 0.2,2.42 ± 0.26,,
PSVPDNAELVLLTLGQAWQGYVSD [DFFB],2.64 ± 0.52,2.84 ± 0.32,,
